Test results reported in paper PMC12041854, “CARM1/PRMT4 facilitates XPF–ERCC1 heterodimer assembly and maintains nucleotide excision repair activity” (Nucleic Acids Research, 2025).

Legend:
Test in all cases: pull-down; in vitro translated and purified XPF WT-Myc or R568K-Myc, with or without in vitro methylation by CARM1-FLAG beads (1 mM S-adenosylmethionine, 50 mM Tris-HCl pH 8.0, 10 mM DTT, 3 h at 30°C), then pulled down with GST-ERCC1; western blot
Conditions in all cases: both partners purified
[1] = target: T1, in vitro translated XPF R568K-Myc (human, UniProt Q92889 1-916, R568K)
T1 construct: also called RK; source: in vitro translated (wheat germ cell-free system); used as reaction mixture, and purified (Ni-NTA, anti-Myc magnetic beads, Myc peptide elution)
T1 sequence: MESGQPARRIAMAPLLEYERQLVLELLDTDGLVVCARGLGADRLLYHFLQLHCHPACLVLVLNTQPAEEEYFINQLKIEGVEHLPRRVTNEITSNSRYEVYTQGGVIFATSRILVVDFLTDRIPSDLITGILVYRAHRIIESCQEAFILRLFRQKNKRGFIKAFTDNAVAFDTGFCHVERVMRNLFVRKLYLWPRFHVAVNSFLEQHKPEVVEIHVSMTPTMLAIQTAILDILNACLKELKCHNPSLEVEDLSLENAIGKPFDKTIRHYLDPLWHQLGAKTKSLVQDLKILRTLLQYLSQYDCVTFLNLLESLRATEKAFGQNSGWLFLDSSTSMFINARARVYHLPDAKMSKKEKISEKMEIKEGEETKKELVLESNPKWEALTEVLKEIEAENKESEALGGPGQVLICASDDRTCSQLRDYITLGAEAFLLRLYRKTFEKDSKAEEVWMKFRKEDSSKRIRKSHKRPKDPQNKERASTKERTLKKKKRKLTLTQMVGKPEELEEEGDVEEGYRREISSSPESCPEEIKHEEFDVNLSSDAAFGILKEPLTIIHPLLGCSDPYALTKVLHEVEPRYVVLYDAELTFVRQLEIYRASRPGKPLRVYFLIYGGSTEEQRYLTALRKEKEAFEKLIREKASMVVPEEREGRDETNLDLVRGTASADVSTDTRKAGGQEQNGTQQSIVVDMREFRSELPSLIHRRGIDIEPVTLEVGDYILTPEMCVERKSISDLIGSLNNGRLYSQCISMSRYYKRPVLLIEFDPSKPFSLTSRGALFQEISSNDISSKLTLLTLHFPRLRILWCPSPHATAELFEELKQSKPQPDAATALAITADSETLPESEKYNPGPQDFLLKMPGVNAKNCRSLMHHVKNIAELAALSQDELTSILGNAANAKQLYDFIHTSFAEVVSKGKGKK

[2] = target: T2, XPF WT-Myc after CARM1-mediated methylation (human, UniProt Q92889 1-916, arginine methylation by CARM1 in vitro; the paper names R568 as the site whose methylation promotes binding to ERCC1)
T2 construct: XPF (xeroderma pigmentosum group F protein), human; also called methylated XPF WT-Myc
T2 sequence: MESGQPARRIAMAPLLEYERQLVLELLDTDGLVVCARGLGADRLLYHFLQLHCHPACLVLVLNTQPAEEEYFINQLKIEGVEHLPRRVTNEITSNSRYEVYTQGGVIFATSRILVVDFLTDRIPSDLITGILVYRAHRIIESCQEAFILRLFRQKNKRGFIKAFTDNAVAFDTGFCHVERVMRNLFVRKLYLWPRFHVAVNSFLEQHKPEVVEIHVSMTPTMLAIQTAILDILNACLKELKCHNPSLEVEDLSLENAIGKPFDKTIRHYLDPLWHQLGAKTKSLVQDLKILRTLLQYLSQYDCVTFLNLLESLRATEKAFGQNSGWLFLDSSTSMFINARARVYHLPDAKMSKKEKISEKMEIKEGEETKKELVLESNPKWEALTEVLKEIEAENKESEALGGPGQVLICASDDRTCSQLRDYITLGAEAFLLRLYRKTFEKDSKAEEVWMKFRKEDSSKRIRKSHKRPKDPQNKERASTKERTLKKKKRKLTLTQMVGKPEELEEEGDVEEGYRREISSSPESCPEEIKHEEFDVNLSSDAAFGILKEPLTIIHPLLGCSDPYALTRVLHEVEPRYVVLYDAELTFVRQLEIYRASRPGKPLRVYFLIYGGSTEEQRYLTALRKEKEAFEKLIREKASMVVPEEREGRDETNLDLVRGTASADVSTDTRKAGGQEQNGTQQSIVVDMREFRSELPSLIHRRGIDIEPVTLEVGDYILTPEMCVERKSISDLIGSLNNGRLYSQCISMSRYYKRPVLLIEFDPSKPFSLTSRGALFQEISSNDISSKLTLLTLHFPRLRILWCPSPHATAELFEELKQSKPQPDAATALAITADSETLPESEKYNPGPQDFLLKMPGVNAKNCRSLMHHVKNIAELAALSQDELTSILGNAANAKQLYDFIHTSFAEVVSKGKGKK

[3] = target: T3, XPF R568K-Myc after the in vitro methylation assay with CARM1 (human, UniProt Q92889 1-916, R568K, subjected to the in vitro methylation assay with CARM1; methylated residues not stated)
T3 construct: also called R568K-Myc mutant after methylation assay
T3 sequence: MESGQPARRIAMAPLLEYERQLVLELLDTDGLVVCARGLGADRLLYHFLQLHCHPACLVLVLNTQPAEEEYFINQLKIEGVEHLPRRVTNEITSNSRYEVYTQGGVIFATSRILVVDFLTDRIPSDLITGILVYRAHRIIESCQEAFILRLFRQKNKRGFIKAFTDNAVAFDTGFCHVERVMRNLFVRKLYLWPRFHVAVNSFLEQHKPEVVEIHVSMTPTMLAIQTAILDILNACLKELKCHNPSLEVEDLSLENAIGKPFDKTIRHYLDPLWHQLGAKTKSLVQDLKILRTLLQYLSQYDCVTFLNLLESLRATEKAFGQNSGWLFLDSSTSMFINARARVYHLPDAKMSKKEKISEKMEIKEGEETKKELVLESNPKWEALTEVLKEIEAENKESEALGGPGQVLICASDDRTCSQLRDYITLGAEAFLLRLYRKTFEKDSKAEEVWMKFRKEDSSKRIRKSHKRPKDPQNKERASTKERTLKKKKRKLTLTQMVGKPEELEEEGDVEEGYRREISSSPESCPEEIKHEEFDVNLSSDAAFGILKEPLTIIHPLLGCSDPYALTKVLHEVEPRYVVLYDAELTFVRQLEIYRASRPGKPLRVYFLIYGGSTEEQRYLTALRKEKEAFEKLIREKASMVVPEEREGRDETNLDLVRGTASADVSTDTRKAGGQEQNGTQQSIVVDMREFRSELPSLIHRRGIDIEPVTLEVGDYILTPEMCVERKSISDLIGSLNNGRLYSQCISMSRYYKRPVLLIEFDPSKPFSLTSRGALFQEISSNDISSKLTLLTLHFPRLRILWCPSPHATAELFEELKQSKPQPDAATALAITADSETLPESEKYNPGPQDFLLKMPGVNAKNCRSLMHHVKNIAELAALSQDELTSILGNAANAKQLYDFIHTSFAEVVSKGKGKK

[4] = target: T4, in vitro translated XPF WT-Myc (human, UniProt Q92889 1-916)
T4 construct: XPF (xeroderma pigmentosum group F protein), human; source: in vitro translated (wheat germ cell-free system, pEU-E01-MCS); used as reaction mixture, and purified (Ni-NTA, anti-Myc magnetic beads, Myc peptide elution)
T4 sequence: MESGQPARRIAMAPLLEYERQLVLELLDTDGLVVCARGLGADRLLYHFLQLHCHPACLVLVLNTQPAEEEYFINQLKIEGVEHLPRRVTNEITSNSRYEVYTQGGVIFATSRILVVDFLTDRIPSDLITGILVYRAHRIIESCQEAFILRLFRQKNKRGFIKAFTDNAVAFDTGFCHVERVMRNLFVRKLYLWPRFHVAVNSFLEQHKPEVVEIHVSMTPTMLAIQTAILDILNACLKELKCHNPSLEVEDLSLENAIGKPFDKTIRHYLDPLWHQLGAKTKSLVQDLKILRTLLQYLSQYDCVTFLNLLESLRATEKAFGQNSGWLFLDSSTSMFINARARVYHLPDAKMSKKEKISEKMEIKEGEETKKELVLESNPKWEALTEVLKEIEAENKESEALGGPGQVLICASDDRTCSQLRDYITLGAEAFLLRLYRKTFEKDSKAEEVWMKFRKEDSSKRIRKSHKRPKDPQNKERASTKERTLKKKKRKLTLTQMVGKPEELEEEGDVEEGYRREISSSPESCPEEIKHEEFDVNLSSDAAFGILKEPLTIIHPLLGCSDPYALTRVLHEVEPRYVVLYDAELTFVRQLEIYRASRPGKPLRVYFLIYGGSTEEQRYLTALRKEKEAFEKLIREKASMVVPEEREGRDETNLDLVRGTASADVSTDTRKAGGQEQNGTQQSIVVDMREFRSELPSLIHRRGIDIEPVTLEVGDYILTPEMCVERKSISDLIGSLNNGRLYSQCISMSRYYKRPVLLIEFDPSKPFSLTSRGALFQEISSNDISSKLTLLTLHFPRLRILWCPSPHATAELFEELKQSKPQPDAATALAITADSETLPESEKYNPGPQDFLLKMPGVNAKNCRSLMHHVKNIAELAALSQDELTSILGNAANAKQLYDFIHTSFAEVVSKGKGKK

binding result [1]: binds
binding result [2]: binds
binding result [3]: binds
binding result [4]: binds
B1: GST-ERCC1 (natural protein, human)
chain: MDPGKDKEGVPQPSGPPARKKFVIPLDEDEVPPGVAKPLFRSTQSLPTVDTSAQAAPQTYAEYAISQPLEGAGATCPTGSEPLAGETPNQALKPGAKSNSIIVSPRQRGNPVLKFVRNVPWEFGDVIPDYVLGQSTCALFLSLRYHNLHPDYIHGRLQSLGKNFALRVLLVQVDVKDPQQALKELAKMCILADCTLILAWSPEEAGRYLETYKAYEQKPADLLMEKLEQDFVSRVTECLTTVKSVNKTDSQTLLTTFGSLEQLIAASREDLALCPGLGPQKARRLFDVLHEPFLKVP
notes: ERCC1 (excision repair cross-complementation group 1), human; also called E1; excision repair cross-complementation group 1; source: E. coli BL21 (pGEX 4T-3), purified (glutathione beads)
